Measurements reported in patent publication US20230002480A1.

Columns and labels:
Assay in all cases: cell-based or functional assay
[1] = target: HIV-1 Env of pseudovirus 3415.v1.c1 (HIV-1)
[2] = target: HIV-1 Env of pseudovirus C3347.c11 (HIV-1)
[3] = target: HIV-1 Env of pseudovirus HIV-0013095-2.11 (HIV-1)
[4] = target: HIV-1 Env of pseudovirus Q23.17 (HIV-1)
[5] = target: HIV-1 Env of pseudovirus Q259.d2.17 (HIV-1)
[6] = target: HIV-1 Env of pseudovirus R1166.c01 (HIV-1)
[7] = target: HIV-1 Env of pseudovirus REJO4541.67 (HIV-1)
[8] = target: HIV-1 Env of pseudovirus 0815.v3.c3 (clade ACD) (HIV-1)
[9] = target: HIV-1 Env of pseudovirus 231965.c01 (clade D) (HIV-1)
[10] = target: HIV-1 Env of pseudovirus 231966.c02 (clade D) (HIV-1)
[11] = target: HIV-1 Env of pseudovirus 3016.v5.c45 (clade D) (HIV-1)
[12] = target: HIV-1 Env of pseudovirus 3103.v3.c10 (clade ACD) (HIV-1)
[13] = target: HIV-1 Env of pseudovirus 3301.v1.c24 (clade AC) (HIV-1)
[14] = target: HIV-1 Env of pseudovirus 3817.v2.c59 (clade CD) (HIV-1)
[15] = target: HIV-1 Env of pseudovirus 6041.v3.c23 (clade AC) (HIV-1)
[16] = target: HIV-1 Env of pseudovirus 6480.v4.c25 (clade CD) (HIV-1)
[17] = target: HIV-1 Env of pseudovirus 6540.v4.c1 (clade AC) (HIV-1)
[18] = target: HIV-1 Env of pseudovirus 6545.v4.c1 (clade AC) (HIV-1)
[19] = target: HIV-1 Env of pseudovirus 6811.v7.c18 (clade CD) (HIV-1)
[20] = target: HIV-1 Env of pseudovirus 6952.v1.c20 (clade CD) (HIV-1)
[21] = target: HIV-1 Env of pseudovirus 89-F1_2_25 (clade CD) (HIV-1)
[22] = target: HIV-1 Env of pseudovirus A07412M1.vrc12 (clade D) (HIV-1)
[23] = target: HIV-1 Env of pseudovirus P1981_C5_3 (clade G) (HIV-1)
[24] = target: HIV-1 Env of pseudovirus X1632_S2_B10 (clade G) (HIV-1)
[25] = target: HIV-1 Env of pseudovirus X2131_C1_B5 (clade G) (HIV-1)

3BNC117 (antibody)
neutralization IC50 [1]: 0.17 µg/mL | neutralization IC80 [1]: 0.47 µg/mL | IC50, titer in TZM.bl cells [2]: 0.03 µg/mL | IC80, titer in TZM.bl cells [2]: 0.13 µg/mL | neutralization IC50 [3]: 0.33 µg/mL | neutralization IC80 [3]: 2.53 µg/mL | neutralization IC50 [4]: 0.005 µg/mL | neutralization IC80 [4]: 0.02 µg/mL | neutralization IC50 [5]: 0.01 µg/mL | neutralization IC80 [5]: 0.05 µg/mL | IC50, titer in TZM.bl cells [6]: 0.17 µg/mL | IC80, titer in TZM.bl cells [6]: 0.64 µg/mL | neutralization IC50 [7]: 0.01 µg/mL | neutralization IC80 [7]: 0.05 µg/mL

NIH 45-46 (antibody)
neutralization IC50 [1]: 0.07 µg/mL | neutralization IC80 [1]: 0.07 µg/mL | IC50, titer in TZM.bl cells [2]: 0.03 µg/mL | IC80, titer in TZM.bl cells [2]: 0.18 µg/mL | neutralization IC50 [3]: 0.01 µg/mL | neutralization IC80 [3]: 0.03 µg/mL | neutralization IC50 [4]: 0.14 µg/mL | neutralization IC80 [4]: 0.6 µg/mL | neutralization IC50 [5]: 0.01 µg/mL | neutralization IC80 [5]: 0.06 µg/mL | IC50, titer in TZM.bl cells [6]: 1.68 µg/mL | IC80, titer in TZM.bl cells [6]: 1.68 µg/mL | neutralization IC50 [7]: 0.003 µg/mL | neutralization IC80 [7]: 0.01 µg/mL

N49P7.1 (antibody)
IC50, neutralization titer in TZM.bl cells [8]: 0.023 µg/mL | IC80, neutralization titer in TZM.bl cells [8]: 0.064 µg/mL | MPI, neutralization in TZM.bl cells [8]: 100 | IC50, neutralization titer in TZM.bl cells [9]: 0.106 µg/mL | IC80, neutralization titer in TZM.bl cells [9]: 0.364 µg/mL | MPI, neutralization in TZM.bl cells [9]: 100 | IC50, neutralization titer in TZM.bl cells [10]: 0.203 µg/mL | IC80, neutralization titer in TZM.bl cells [10]: 0.705 µg/mL | MPI, neutralization in TZM.bl cells [10]: 100 | IC50, neutralization titer in TZM.bl cells [11]: 0.559 µg/mL | IC80, neutralization titer in TZM.bl cells [11]: 2.54 µg/mL | MPI, neutralization in TZM.bl cells [11]: 100 | IC50, neutralization titer in TZM.bl cells [12]: 0.229 µg/mL | IC80, neutralization titer in TZM.bl cells [12]: 0.772 µg/mL | MPI, neutralization in TZM.bl cells [12]: 100 | IC50, neutralization titer in TZM.bl cells [13]: 0.041 µg/mL | IC80, neutralization titer in TZM.bl cells [13]: 0.111 µg/mL | MPI, neutralization in TZM.bl cells [13]: 100 | neutralization IC50 [1]: 0.191 µg/mL | neutralization IC80 [1]: 0.647 µg/mL | neutralization MPI [1]: 100 | IC50, neutralization titer in TZM.bl cells [14]: 1.48 µg/mL | IC80, neutralization titer in TZM.bl cells [14]: 8.36 µg/mL | MPI, neutralization in TZM.bl cells [14]: 97 | IC50, neutralization titer in TZM.bl cells [15]: 0.078 µg/mL | IC80, neutralization titer in TZM.bl cells [15]: 0.366 µg/mL | MPI, neutralization in TZM.bl cells [15]: 100 | IC50, neutralization titer in TZM.bl cells [16]: 0.056 µg/mL | IC80, neutralization titer in TZM.bl cells [16]: 0.192 µg/mL | MPI, neutralization in TZM.bl cells [16]: 100 | IC50, neutralization titer in TZM.bl cells [17]: 14.7 µg/mL | IC80, neutralization titer in TZM.bl cells [17]: > 50 µg/mL | MPI, neutralization in TZM.bl cells [17]: 75 | IC50, neutralization titer in TZM.bl cells [18]: 1.15 µg/mL | IC80, neutralization titer in TZM.bl cells [18]: 16 µg/mL | MPI, neutralization in TZM.bl cells [18]: 92 | IC50, neutralization titer in TZM.bl cells [19]: 0.321 µg/mL | IC80, neutralization titer in TZM.bl cells [19]: 1.46 µg/mL | MPI, neutralization in TZM.bl cells [19]: 100 | IC50, neutralization titer in TZM.bl cells [20]: 26.3 µg/mL | IC80, neutralization titer in TZM.bl cells [20]: > 50 µg/mL | MPI, neutralization in TZM.bl cells [20]: 71 | IC50, neutralization titer in TZM.bl cells [21]: 41.6 µg/mL | IC80, neutralization titer in TZM.bl cells [21]: > 50 µg/mL | MPI, neutralization in TZM.bl cells [21]: 58 | IC50, neutralization titer in TZM.bl cells [22]: 0.232 µg/mL | IC80, neutralization titer in TZM.bl cells [22]: 1.07 µg/mL | MPI, neutralization in TZM.bl cells [22]: 100 | neutralization IC50 [2]: 0.048 µg/mL | neutralization IC80 [2]: 0.161 µg/mL | neutralization MPI [2]: 100 | neutralization IC50 [3]: 0.105 µg/mL | neutralization IC80 [3]: 0.374 µg/mL | neutralization MPI [3]: 100 | IC50, neutralization titer in TZM.bl cells [23]: 0.216 µg/mL | IC80, neutralization titer in TZM.bl cells [23]: 0.494 µg/mL | MPI, neutralization in TZM.bl cells [23]: 100 | neutralization IC50 [4]: 0.077 µg/mL | neutralization IC80 [4]: 0.208 µg/mL | neutralization MPI [4]: 100 | neutralization IC50 [5]: 0.505 µg/mL | neutralization IC80 [5]: 4.23 µg/mL | neutralization MPI [5]: 97 | neutralization IC50 [6]: 0.136 µg/mL | neutralization IC80 [6]: 0.461 µg/mL | neutralization MPI [6]: 100 | neutralization IC50 [7]: 0.022 µg/mL | neutralization IC80 [7]: 0.088 µg/mL | neutralization MPI [7]: 100 | IC50, neutralization titer in TZM.bl cells [24]: 17.9 µg/mL | IC80, neutralization titer in TZM.bl cells [24]: > 50 µg/mL | MPI, neutralization in TZM.bl cells [24]: 65 | IC50, neutralization titer in TZM.bl cells [25]: 0.129 µg/mL | IC80, neutralization titer in TZM.bl cells [25]: 0.431 µg/mL | MPI, neutralization in TZM.bl cells [25]: 100
